What is called Km is the substrate concentration at which the rate is half of its maximum. Broadly, the kcat is the maximal rate divided by the concentration of active sites.

Holding throughout (assay): methyltransferase kinetics
Format in all cases: biochemical, Aspergillus fumigatus
What all share (conditions): methyl donor SAM

Substrate in data set [1]: O=C(O)/C=C/C(=O)N[C@@H](Cc1ccc(O)cc1)C(=O)O
Substrate in data set [2]: COC(=O)c1ccc(C(=O)O)o1
Substrate in data set [3]: O=C(O)c1ccc(C(=O)O)cc1
Substrate in data set [4]: O=C(O)c1ccc(C(=O)O)o1
Substrate in data set [5]: COC(=O)c1ccc(C(=O)O)cc1

B1: FtpM (Aspergillus fumigatus Af293) (protein)
chain: MTQSNGNAVSSASDPYRLNRNIAASTRLSLQHYIWKENMGYLLHPSIDVSRPDLAIADVGTGTAIWILDLLRQLPNAKFHGFDISSEQYPAPGFLPPNVSLSKLDILGEIPEEYREKFDVVHARLLVQVVNQAGSDPVPVIRNMMKLLKPGGYLQWEEPNDDASKRPIVKADPANSSENAEKLLQRLDARFRAATPASWSVALAETFKEQGLQNVVREEFSTDTYLLLLDQTNYLGLFGELISKLDGDLKEELTQLHANTVAEARKGLSWKVRRFAFLGQKP
notes: recombinant, C-terminal His-tag; dimer (modelled)
B1: the Km in data set [1] amounted to 680 µM; in data set [2], 1400 µM; in data set [3], 72 µM; in data set [4], 520 µM; in data set [5] it was 1510 µM. Moreover, the kcat in data set [1] is 0.00105 s⁻¹; in data set [2], 8.3e-05 s⁻¹; in data set [3] it was 0.0148 s⁻¹; in data set [4], 0.00033 s⁻¹; in data set [5], 8.17e-05 s⁻¹.

The record behind these values is article PMC9307002, “Carboxyl Methyltransferase Catalysed Formation of Mono‐ and Dimethyl Esters under Aqueous Conditions: Application in Cascade Biocatalysis” (Angewandte Chemie (International Ed. in English), 2022).
